Measurements published in patent publication US6852842B2, “Methods for functional kidney imaging using small dendrimer contrast agents” (The United States of America as represented by the …, priority 2002, dated 2005).

Columns and labels:
[1] = Biodistribution and whole body retention of 153Gd-labeled dendrimer-1B4M-Gd conjugates; format: in vivo, nude mice; conditions: for cleared from the body within 15 min after injection / excretion from the body, rank among conjugates: mouse, in vivo
Protocol: Radioactive dendrimer conjugates used for biodistribution studies were prepared as follows. ^153GdCl3 containing no other stable isotope of Gd (III) was purchased from NEN DuPont (Boston, Mass.). Approximately 1,500 μg of each dendrimer (containing 2 μmol of 1B4M) was reacted with 1.11 MBq (30 μCi) of ^153Gd citrate (46 pmol) in 0.3 M citrate buffer at pH 5 for 30 min at room temperature. The preparation was then mixed with a 3-fold molar excess of non-radiolabeled Gd(III) citrate (6 μmol) to conjugate 1B4M to fully saturate the chelating groups with Gd(III). This reaction was incubated for 30 min before the addition of ethylenediaminetetraacetic acid (EDTA) and subsequent column purification. To remove any non-incorporated free metal, 10 μl of 0.5 M EDTA (Sigma, St. Louis, Mo.) was added to minimized formation of Gd(OH)3 precipitate. The product was purified using a PD-10 column (Pharmacia, Uppsala, Sweden), eluting with PBS, (pH 7.4). The radio-purity of each preparation was analyzed by size-exclusion HPLC using a TSK G3000SW column (TosoHaas, Philadelphia, Pa.; 0.1 M PBS; 0.01 M KCl; pH 7.4; 1 ml/min). DTPA (Sigma) was also labeled with ^153Gd in 0.3-M citrate buffer for 30 min at room temperature. The radiolabeling yields of all preparations ranged from 47% to 55%. The radio-purity of all preparations analyzed by size-exclusion HPLC was greater than 97%.
Seven groups of nude mice (n=4 in each group) were injected with 37 kBq (1 μCi)/200 μl of ^153Gd-labeled dendrimer-1B4M-Gd conjugates or ^153Gd-DTPA. The injected samples were added to non-radioactive preparations and the total gadolinium dose was adjusted to 0.02 mmol Gd/kg, 20% of the dose of Gd-[DTPA]-dimeglumine routinely used clinically. The mice were sacrificed 15 min after the injection of the ^153Gd-labeled preparations and biodistribution studies were performed. The data were expressed as the percentage of the injected dose per gram (% ID/g) of tissue. The carcasses of the mice were also counted to calculate the whole body retention (% ID).

[2] = Contrast-enhanced dynamic whole body 3D-micro-MRI of mice; format: in vivo, nude mice; conditions: 0.03 mmol Gd/kg, all times up to 15 min
Protocol: To evaluate the whole body pharmacokinetics of the contrast agents, seven groups of 8-week-old female nude mice (n=4 in each group) (NCI, Frederick, Md.) were used to obtain contrast-enhanced dynamic 3D-micro-MR images. […] All images were obtained using the high-resolution wrist coil (GE) with a custom mouse holder using a clinical-grade 1.5-tesla superconductive magnet unit (Signa LX, General Electric Medical System, Milwaukee, Wis.). The mice were anesthetized with 1.15 mg of sodium pentobarbital (Dainabot, Osaka, Japan) and placed in the center of the coils. The fast spoiled gradient echo technique ([…] 19.4/4.2; flip angle 60°; scan time 1'40''; phase encoding steps 256×256; 3 number of excitations; slab thickness 12) with chemical fat-suppression technique and serial 3D data acquisition was used to acquire images every 2 min from 0 (immediately after injection) to 14 min after injection of the contrast agents for all mice studies. The coronal images for dynamic MRI were reconstructed with 2-mm section thickness without gap reconstruction. In addition, slice data was processed into 3D images with the maximum intensity […] (MIP) method (Advantage Windows, General Electric Medical System).

COX-2 knock-out mice = test: Contrast-enhanced dynamic 3D-micro-MRI of mice with chronic renal failure; format: in vivo; conditions: 0.03 mmol Gd/kg i.v., images over 14 min post-injection
Protocol: To determine if dendrimer-enhanced MR imaging according to the disclosure could detect chronic kidney failure and renal cysts, serial dynamic MR images of normal and 7 month old COX-2 knock-out mice (n=4) were obtained. The later mice have renal cysts and chronic renal failure. The contrast-enhanced dynamic MRI scans were obtained using the fast spoiled gradient echo technique (efgre3d; TR/TE 20.4/7.2; TI49; flip angle 30°; scan time 1′52″; phase encoding steps 512×256; 3 NEX; slab thickness 16) with fat-suppression technique following intravenous injection of 0.03 mmol Gd/kg G4-(1B4M-Gd)64. Serial multi-slice 3D data was obtained over a period of 14 min post-injection of the contrast agents for all mice studied. The width of the cortex and outer stripe of the outer medulla were measured. The combined width of the cortex and outer medulla measured by PAMAM-G4 enhanced MR imaging was much smaller in COX-2 knockout mice (left) than normal mice (right), and correlated with histological thickness (obtained at the time of sacrifice). […] These images show the thicker width of the cortex and outer medulla in the normal mice (FIG. 7a) in comparison to the COX-2 knockout mice (FIG. 7b). […] Thus, contrast-enhanced dynamic 3D-micro-MR imaging can be used to detect chronic renal failure and renal cysts.

[3] = mice; cited from earlier work
[4] = in vivo; cited from earlier work
kidneys of mice = test: Serial dynamic high-resolution MR imaging of the kidneys of mice; format: in vivo
Protocol: The mice were anesthetized with 1.15 mg of sodium pentobarbital (Dainabot, Osaka, Japan) and placed in the center of the coils. The fast spoiled gradient echo technique ([…] 71; flip angle 30°; scan time 3'07''; phase encoding steps 512×256; 2 number of excitations; slab thickness 16) with fat-suppression technique and serial 3D data acquisition was used to acquire images every 3.1 min from 0 (immediately after injection) to 12 min after injection of the contrast agents for all mice studied. The coronal images were reconstructed with 0.6-mm thick sections with a 0.3-mm overlap reconstruction. The field of view was 6×3 cm and the size of the matrix was 512×256. The reproducibility of the experiments (two mice in each group) was confirmed by repeating the experiments under the same conditions using a different 1.5-tesla superconductive MRI instrument (Signa Horizon, GE).

## PAMAM-G2D-(Gd-1B4M)16
[1]
  cleared from the body within 15 min after injection: Greater than 60 % ID
  excretion from the body, rank among conjugates: most rapidly excreted

## O=C([O-])CN(CCN(CC(=O)[O-])CC(=O)O)CCN(CC(=O)[O-])CC(=O)O.[153Gd+3] [Gd-DTPA, reference compound]
[1]; nude mice, 15 min after injection, 0.02 mmol Gd/kg
  amount of 153Gd-labeled agent remaining in the blood: 2.7±0.1 % ID/g

## DAB-Am-32-(Gd-1B4M)32 [DAB-G3]
[1]
  cleared from the body within 15 min after injection: Greater than 60 % ID
  excretion from the body, rank among conjugates: most rapidly excreted

## DAB-Am16-(Gd-1B4M)16 [DAB-G2]
[1]
  cleared from the body within 15 min after injection: Greater than 60 % ID
  excretion from the body, rank among conjugates: most rapidly excreted

## PAMAM-G4D-(Gd-1B4M)64
[2]
  MRI signal intensity in the left ventricle of the heart: highest
COX-2 knock-out mice
  combined width of the cortex and outer medulla in COX-2 knockout mice vs normal mice by enhanced MR imaging: much smaller
[3]
  injected dose excreted during the first two days following administration: 20 % ID

## DAB-Am-64-(Gd-1B4M)64 [DAB-G4]
[4]
  accumulation in the kidney vs PAMAM-G4D-(1B4M)64: less
  accumulation in the liver vs PAMAM-G4D-(1B4M)64: significantly more

## CNC[C@H](O)[C@@H](O)[C@H](O)[C@H](O)CO.CNC[C@H](O)[C@@H](O)[C@H](O)[C@H](O)CO.O=C([O-])CN(CCN(CC(=O)[O-])CC(=O)O)CCN(CC(=O)[O-])CC(=O)O.[Gd+3] [Gd-[DTPA]-dimeglumine, Gd-DTPA-dimeglumine]
Kidneys of mice; double dose 0.06 mmol Gd/kg
  visualization of the proximal straight tubule of the kidney: not visualized
Kidneys of mice; high-resolution coronal images, dendrimers 0.03 mmol Gd/kg, Gd-[DTPA]-dimeglumine 0.03 or 0.06 mmol Gd/kg
  bright white band at the outer stripe of the outer medulla: not observed
Kidneys of mice; higher doses, e.g. 0.1 mmol Gd/kg
  MRI signal from the renal pelvis region: loss of signal
